{
  "source": "patent US20050054835A1",
  "about": "(XOMA TECHNOLOGY, published 2005)",
  "molecular_target": "T1, human CD5 cell differentiation marker (human, UniProt P06127 25-495)",
  "T1 sequence": "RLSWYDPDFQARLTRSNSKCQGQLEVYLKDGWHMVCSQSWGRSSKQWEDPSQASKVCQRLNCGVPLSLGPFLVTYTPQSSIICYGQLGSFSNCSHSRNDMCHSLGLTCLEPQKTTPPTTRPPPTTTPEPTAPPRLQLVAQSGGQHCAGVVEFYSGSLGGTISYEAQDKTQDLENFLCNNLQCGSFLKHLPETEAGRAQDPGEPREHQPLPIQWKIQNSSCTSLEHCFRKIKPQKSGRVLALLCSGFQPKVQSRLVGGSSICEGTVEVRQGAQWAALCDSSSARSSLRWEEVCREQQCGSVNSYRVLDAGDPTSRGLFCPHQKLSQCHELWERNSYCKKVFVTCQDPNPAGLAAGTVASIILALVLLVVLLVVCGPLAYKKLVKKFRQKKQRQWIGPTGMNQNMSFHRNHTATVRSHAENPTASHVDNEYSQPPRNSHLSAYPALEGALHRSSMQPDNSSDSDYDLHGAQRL",
  "assay": "cell-based or functional assay",
  "data": [
    {"binder": "he3Fab-rGelA50(C44) (other, not shown: a dimerising Fc or GST, Cys 44 disulfide-linked through an M2IT linker to the Fab) heavy: EIQLVQSGGGLVKPGGSVRISCAASGYTFTNYGMNWVRQAPGKGLEWMGWINTHTGEPTYADSFKGRFTFSLDDSKNTAYLQINSLRAEDTAVYFCTRRGYDWYFDVWGQGTTVTVSS light: DIQMTQSPSSLSASVGDRVTITCRASQDINSYLSWFQQKPGKAPKTLIYRANRLESGVPSRFSGSGSGTDYTLTISSLQYEDFGIYYCQQYDESPWTFGGGTKLEIK GLDTVSFSTKGATYITYVNFLNELRVKLKPEGNSHGIPLLRKKCDDPGKAFVLVALSNDNGQLAEIAIDVTSVYVVGYQVRNRSYFFKDAPDAAYEGLFKNTIKTRLHFGGSYPSLEGEKAYRETTDLGIEPLRIGIKKLDENAIDNYKPTEIASSLLVVIQMVSEAARFTFIENQIRNNFQQRIRPANNTISLENKWGKLSFQIRTSGANGMFSEAVELERANGKKYYVTAVDQVKPKIALLKFVDKDPK", "values": [
      {"measurement": "IC50, whole cell cytotoxicity (inhibition of protein synthesis), CEM cells", "value": 173, "unit": "pM T"},
      {"measurement": "IC50, whole cell cytotoxicity (inhibition of protein synthesis), HSB2 cells", "value": 165, "unit": "pM T"}
    ]}
  ]
}
